Test results as given in patent US20170267750A1, “Method of Treating Ovarian and Renal Cancer Using Antibodies Against T Cell Immunoglobulin Domain and Mucin Domain 1 (TIM-1) Antigen” (Celldex Therapeutics, Inc., priority 2005, published 2017).

Assays:
[1] = target: TIM-1 antigen, soluble extracellular domain of TIM-1 (CG57008-02) with a V5-HIS tag (human) (UniProt Q96D42); test: BIAcore 2000, 25 C, mAb captured on goat anti-human surface, TIM-1 antigen injected at 292 nM
[2] = target: TIM-1 (T cell, immunoglobulin domain and mucin domain 1), cell membrane-bound (human) (UniProt Q96D42); test: cell-based or functional assay
Sequence of TIM-1 (T cell, immunoglobulin domain and mucin domain 1), cell membrane-bound (human) (Q96D42 21-364): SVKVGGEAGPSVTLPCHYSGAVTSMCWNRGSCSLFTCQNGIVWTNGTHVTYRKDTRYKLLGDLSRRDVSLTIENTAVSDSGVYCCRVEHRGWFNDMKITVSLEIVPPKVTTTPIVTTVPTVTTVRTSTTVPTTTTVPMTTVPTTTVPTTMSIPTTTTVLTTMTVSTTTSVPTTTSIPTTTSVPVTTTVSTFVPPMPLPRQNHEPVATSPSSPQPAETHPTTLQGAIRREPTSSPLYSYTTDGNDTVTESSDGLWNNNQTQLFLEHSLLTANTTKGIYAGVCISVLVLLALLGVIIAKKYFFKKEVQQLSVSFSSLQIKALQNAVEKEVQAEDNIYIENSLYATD

Sequence of TIM-1 antigen, soluble extracellular domain of TIM-1 (CG57008-02) with a V5-HIS tag (human) (Q96D42 other isoform, or with tags, fused parts or gaps): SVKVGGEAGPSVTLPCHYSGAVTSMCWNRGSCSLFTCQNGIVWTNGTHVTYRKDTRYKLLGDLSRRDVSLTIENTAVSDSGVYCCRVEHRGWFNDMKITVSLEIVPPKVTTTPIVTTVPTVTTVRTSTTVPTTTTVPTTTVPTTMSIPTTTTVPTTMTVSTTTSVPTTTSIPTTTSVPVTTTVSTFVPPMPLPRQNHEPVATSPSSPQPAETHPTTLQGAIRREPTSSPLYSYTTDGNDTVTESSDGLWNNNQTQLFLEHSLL

Row | Kd [1] | Binder | CAKI-1 cell death, clonogenic assay with AE-conjugated antibody, maximum dose [2]
1 | 3.35 nM | anti-TIM-1 monoclonal antibody 2.54 (antibody, V domains shown) VH: QVQLEQSGGGVVQPGRSLRLSCAASGFTFTNYGLHWVRQAPGKGLDWVAVIWYDGSHKFYADSVKGRFTISRDNSKNTLFLQMNSLRAEDTAVYYCTRDLDYWGQGTLVTVSS VL: ETQLTQSPGTLSLSPGERVTLSCRASQSVSNNYLAWYQQKPGQAPRLLIYGASSRATGIPDRFSGSGSGTDFTLTISRLEPEDCAECYCQQYGSSLPLTFGGGTKVEIKR | –
2 | – | Auristatin E (AE)-conjugated anti-TIM-1 mAb 2.59.2 (antibody, V domains shown) VH: NNNNNQSGPRLVKPSQTLSLTCTVSGGSISSDGYYWSWIRQHPGKGLEWIGYIYYSGSTFYNPSLKSRVAISVDTSKNQFSLKLSSVTAADTAVYYCARESPHSSNWYSGFDCWGQGTLVTVSS VL: NNNNTQSPDFQSVTPKEKVTITCRASQSIGSRLHWYQQKPDQSPKLLIKYASQSFSGVPSRFSGSGSGTDFTLTINSLEAEDAATYYCHQSSNLPFTFGPGTKVDIKR | > 90%
3 | – | Auristatin E (AE)-conjugated anti-TIM-1 mAb 2.70.2 (antibody, human IgG4, kappa, V domains shown) VH: QVQLVESGGGVVQPGRSLRLSCAASGFIFSRYGMHWVRQAPGKGLKWVAVIWYDGSNKLYADSVKGRFTISRDNSKNTLYLQMNSLRAEDTAVYYCARDYYDNSRHHWGFDYWGQGTLVTVSS VL: DIVMTQTPLSLPVTPGEPASISCRSSRSLLDSDDGNTYLDWYLQKPGQSPQLLIYTLSYRASGVPDRFSGSGSGTDFTLKISRVEAEDVGVYYCMQRVEFPITFGQGTRLEIKR | > 90%
